T1: rat CDH6 (on cells) (rat, UniProt P55280 54-789)
T1 construct: also called rCDH6
T1 sequence: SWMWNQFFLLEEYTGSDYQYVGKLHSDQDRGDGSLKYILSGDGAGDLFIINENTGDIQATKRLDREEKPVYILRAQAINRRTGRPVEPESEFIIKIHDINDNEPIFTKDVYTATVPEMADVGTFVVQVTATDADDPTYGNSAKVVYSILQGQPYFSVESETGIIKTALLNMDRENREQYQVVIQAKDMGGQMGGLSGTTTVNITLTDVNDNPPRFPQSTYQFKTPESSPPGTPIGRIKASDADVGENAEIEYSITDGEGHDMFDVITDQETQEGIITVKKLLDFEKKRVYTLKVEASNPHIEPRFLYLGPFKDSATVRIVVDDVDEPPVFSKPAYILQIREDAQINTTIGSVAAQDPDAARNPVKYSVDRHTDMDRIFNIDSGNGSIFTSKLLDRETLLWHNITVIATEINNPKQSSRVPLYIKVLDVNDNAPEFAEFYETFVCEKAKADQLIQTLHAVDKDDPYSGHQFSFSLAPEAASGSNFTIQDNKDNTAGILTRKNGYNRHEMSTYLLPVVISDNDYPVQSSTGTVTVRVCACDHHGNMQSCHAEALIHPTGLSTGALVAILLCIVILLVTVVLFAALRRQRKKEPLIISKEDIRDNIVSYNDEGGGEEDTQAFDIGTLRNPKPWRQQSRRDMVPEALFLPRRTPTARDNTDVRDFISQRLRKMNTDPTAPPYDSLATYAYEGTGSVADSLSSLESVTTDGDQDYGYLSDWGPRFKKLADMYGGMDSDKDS

T2: human CDH6 (full-length, on cells) (human, UniProt P55285 54-790)
T2 construct: also called hCDH6; full-length hCDH6
T2 sequence: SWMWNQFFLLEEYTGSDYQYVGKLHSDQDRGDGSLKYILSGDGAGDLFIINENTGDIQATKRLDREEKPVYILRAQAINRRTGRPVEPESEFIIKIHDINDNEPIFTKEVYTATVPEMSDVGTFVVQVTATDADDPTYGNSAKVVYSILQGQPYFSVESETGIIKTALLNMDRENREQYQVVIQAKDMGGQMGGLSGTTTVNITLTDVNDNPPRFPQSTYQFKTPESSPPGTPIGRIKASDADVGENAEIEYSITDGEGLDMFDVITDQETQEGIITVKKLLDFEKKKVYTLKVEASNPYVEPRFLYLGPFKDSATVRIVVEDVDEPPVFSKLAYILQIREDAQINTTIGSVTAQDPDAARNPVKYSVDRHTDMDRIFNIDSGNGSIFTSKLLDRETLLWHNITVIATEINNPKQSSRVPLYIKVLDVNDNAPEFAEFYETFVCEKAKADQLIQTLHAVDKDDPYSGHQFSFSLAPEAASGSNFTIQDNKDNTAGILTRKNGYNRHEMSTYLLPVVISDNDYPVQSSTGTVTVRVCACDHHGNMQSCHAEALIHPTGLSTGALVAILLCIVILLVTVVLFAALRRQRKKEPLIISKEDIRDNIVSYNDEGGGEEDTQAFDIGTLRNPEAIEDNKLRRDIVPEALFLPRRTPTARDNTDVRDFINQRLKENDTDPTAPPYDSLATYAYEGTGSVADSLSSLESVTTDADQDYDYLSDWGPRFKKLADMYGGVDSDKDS


Tests used:
[1] = target: T1, rat CDH6 (on cells); assay: flow cytometry, MFI vs antibody concentration; 293α cells transiently transfected with rCDH6; PE anti-human IgG Fc
Procedure: The cells were cultured overnight under conditions of 37° C. and 5% CO₂, and thereafter, a cell suspension was prepared. […] Thereafter, the cells were suspended by the addition of each of the 4 humanized hG019 antibodies (clone Nos: H01L02, H02L02, H02L03 and H04L02), which had been prepared in Example 5)-5-3, or human IgG1 control (Calbiochem). The cells were left standing at 4° C. for 1 hour. The cells were washed twice with PBS supplemented with 5% FBS, and then suspended by the addition of anti-human IgG, Fc(gamma) PE goat F(ab′) (Jackson ImmunoResearch Laboratories, Inc.) that had been 500-fold diluted with PBS supplemented with 5% FBS. The cells were left standing at 4° C. for 1 hour. The cells were washed twice with PBS supplemented with 5% FBS, followed by detection using a flow cytometer (Canto II; BD Biosciences). The data was analyzed using FlowJo (Tree Star, Inc.). In FIGS. 6-1 and 6-2, the abscissa depicts antibody concentration, and the ordinate depicts the amount of the antibody bound based on mean fluorescence intensity. As shown in FIGS. 6-1 and 6-2, the human IgG1 control as a negative control binds to none of the CDH6-transfected cells. The 4 humanized hG019 antibodies (clone Nos: H01L02, H02L02, H02L03 and H04L02) bind to human CDH6 and cynomolgus monkey CDH6, but bind to neither mouse nor rat CDH6. None of the antibodies bind to the cells transfected with the empty vector pcDNA3.1 as a negative control.

[2] = target: T2, human CDH6 (full-length, on cells); assay: competition flow cytometry on 786-O/hCDH6 cells; competitor: Alexa 488-labeled H01L02 at 5 nM; unlabeled antibody varied [lower panel]
Procedure: Thereafter, the cells were suspended by the addition of labeled NOV0712 or labeled H01L02 (final concentration: 5 nM) and, further, the addition of each of the 4 humanized hG019 antibodies (clone Nos: H01L02, H02L02, H02L03 and H04L02), which had been prepared in Example 5)-5-3, or the anti-CDH6 antibody NOV0712, which had been prepared in Reference Example 1, or human IgG1 (Calbiochem) as a negative control (final concentration: as shown in the abscissa of FIG. 9). The cells were left standing at 4° C. for 1 hour. Thereafter, the cells were washed twice with PBS supplemented with 5% FBS, followed by detection using a flow cytometer (Canto II; BD Biosciences). The data was analyzed using FlowJo (Tree Star, Inc.). The abscissa depicts the final concentration of the added unlabeled antibody, and the ordinate depicts the amount of the antibody bound based on mean fluorescence intensity. When unlabeled NOV0712 is added to cells supplemented with labeled NOV0712, the amount of the labeled antibody bound is decreased by replacement with the unlabeled antibody in an addition concentration-dependent manner because they compete with each other for binding to the same epitope. […] Likewise, when each of the 4 unlabeled humanized hG019 antibodies is added to cells supplemented with labeled H01L02, the amount of the labeled antibody bound is decreased by replacement with the unlabeled antibody in an addition concentration-dependent manner because they compete with each other for binding to the same epitope.

Binder	binding result [1]	IC50 (read off the curve) [2]
H02L02 antibody (antibody, human IgG1, kappa, V domains shown, Humanized IgG1/kappa (hH02 + hL02); also called humanized hG019 antibody H02L02) VH: EVQLVQSGAEVKKPGASVKVSCKASGYTFTRNFMHWVRQAPGQGLEWMGWIYPGDGETEYNQKFQGRVTITADRSTSTAYMELSSLRSEDTAVYFCARGVYGGFAGGYFDFWGQGTLVTVSS VL: DIQMTQSPSSLSASVGDRVTITCKASQNIYKNLAWYQQKPGKAPKLLIYDANTLQTGVPSRFSGSGSGSDFTLTISSLQPEDFATYFCQQYYSGWAFGQGTKVEIKR	no binding (tested: about 4 nM)	~3 nM
H04L02 antibody (antibody, human IgG1, kappa, V domains shown, Humanized IgG1/kappa (hH04 + hL02); also called humanized hG019 antibody H04L02) VH: QVQLVQSGAEVKKPGASVKVSCKASGYTFTRNFMHWIRQAPGQGLEWMGWIYPGDGETEYAQKFQGRVTLTADRSTSTAYMELSSLRSEDTAVYYCARGVYGGFAGGYFDFWGQGTLVTVSS VL: DIQMTQSPSSLSASVGDRVTITCKASQNIYKNLAWYQQKPGKAPKLLIYDANTLQTGVPSRFSGSGSGSDFTLTISSLQPEDFATYFCQQYYSGWAFGQGTKVEIKR	no binding (tested: about 4 nM)	~10 nM
H02L03 antibody (antibody, human IgG1, kappa, V domains shown, Humanized IgG1/kappa (hH02 + hL03); also called humanized hG019 antibody H02L03) VH: EVQLVQSGAEVKKPGASVKVSCKASGYTFTRNFMHWVRQAPGQGLEWMGWIYPGDGETEYNQKFQGRVTITADRSTSTAYMELSSLRSEDTAVYFCARGVYGGFAGGYFDFWGQGTLVTVSS VL: DIQMTQSPSSLSASVGDRVTITCKASQNIYKNLAWYQQKLGEGPKLLIYDANTLQTGVPSRFSGSGSGTDFTLTISSLQPEDFATYYCQQYYSGWAFGQGTKVEIKR	no binding (tested: about 4 nM)	~10 nM
H01L02 antibody (antibody, human IgG1, kappa, V domains shown, Humanized IgG1/kappa (hH01 + hL02); also called humanized hG019 antibody H01L02; labeled H01L02) VH: EVQLVQSGAEVKKPGASVKVSCKASGYTFTRNFMHWVRQAPGQGLEWMGWIYPGDGETEYAQKFQGRVTITADTSTSTAYMELSSLRSEDTAVYYCARGVYGGFAGGYFDFWGQGTLVTVSS VL: DIQMTQSPSSLSASVGDRVTITCKASQNIYKNLAWYQQKPGKAPKLLIYDANTLQTGVPSRFSGSGSGSDFTLTISSLQPEDFATYFCQQYYSGWAFGQGTKVEIKR	no binding (tested: about 4 nM)	~5 nM
